{"source": "patent USRE50268", "binders": {"B1": {"name": "PGDM1400 Fab (Fab, V domains shown)", "VH": "QVHLTQSGPEVRKPGTSVKVSCKAPGNTLKTYDLHWVRSVPGQGLQWMGWISHEGDKKVIVERFKAKVTIDWDRSTNTAYLQLSGLTSGDTAVYYCAKGSKHRLRDYALYDDDGALNWAVDVDYLSNLEFWGQGTAVTVSS", "VL": "DFVLTQSPHSLSVTPGESASISCKSSHSLIHGDRNNYLAWYVQKPGRSPQLLIYLASSRASGVPDRFSGSGSDKDFTLKISRVETEDVGTYYCMQGRESPWTFGQGTKVDIK", "modifications": "sulfated tyrosine at position 100F (Tys100F), seen in the electron density map of the Fab crystal structure"}}, "target": "BG505 SOSIP.664 gp140 trimer (HIV-1 isolate BG505)", "experiment": "single-particle negative-stain electron microscopy", "data": [{"binder": "B1", "values": [{"measurement": "stoichiometry (Fab per trimer)", "value": 1}]}]}
